Laboratory results reported in patent US20120317681A1.

What was measured:
[1] = target: Cry1Ca receptor protein(s) / binding site on Brush Border Membrane Vesicles (BBMV's) from Spodoptera frugiperda (Spodoptera frugiperda); assay: homologous competition; displacement of 0.5 nM 125I-labeled Cry1Ca core toxin from S. frugiperda BBMV (150 ug/mL)
[2] = target: Cry1Ca receptor protein(s) / binding site on Brush Border Membrane Vesicles (BBMV's) from Spodoptera frugiperda (Spodoptera frugiperda); assay: heterologous competition; displacement of 0.5 nM 125I-labeled Cry1Ca core toxin from S. frugiperda BBMV (150 ug/mL)

Substance	IC50 [1] [nM]	IC50 [2] [nM]
Cry1Ca core toxin protein (non-radiolabeled, trypsin-activated) (from UniProt P0A376 28-618) (ligand)	5	
Cry1Fa core toxin protein (non-labeled, trypsin-activated) (from UniProt Q03746 28-605) (ligand)		> 300
